{"source": "the RNAGym collection of RNA variant scans (doi:10.1073/pnas.2313332121)", "parents": {"B1": {"name": "TPR t1 (parent)", "chain": "GACCAAUCUGCCCUCAGAGCUCGAGAACAUCUUCGGAUGCAGAGGAGGCAGGCUUCGGUGGCGCGAUAGCGCCAACGUCCUCAACCUCCAAUGCAUCCCACCACAUGAUGAUGCCUGAAGAGCCUUGGUUUUUUG"}}}
{"variants_of": "B1", "assay": "polymerase ribozyme fitness, log enrichment relative to wild type (log ratio); higher = more active; in vitro selection for triplet polymerase activity", "how_it_was_run": "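Each subunit of a heterodimeric triplet polymerase ribozyme was represented by a PCR-built, transcribed mutant library that underwent triplicate single-round in vitro selection with frozen incubation at −7 °C. Extended constructs were recovered by gel excision, streptavidin-bead capture and RT-PCR, and Illumina sequencing of input and output libraries kept genotypes with ≥10 input reads and ≥1 read per output. Fitness is the logarithm of genotype enrichment relative to wild-type enrichment, from inverse-variance-weighted replicate averages, with a logarithm base of 2.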"}
{"variant": "GACCAAUCUGCCCUCAGAGCUCGAGAACAUCUUCGGAUGCAGAGGAGGCAGGAUUCGGUGGCGCGAUAGCGCCAACGUCCUCAACCUCCAAUGCAUCACACGACAUGAUGACGCCUGAAGAGCCUUGGUUUUUUG", "polymerase ribozyme fitness (log ratio)": -7.27}
{"variant": "GACCAAUCUGCCCUCAGAGCUCGAGAACAUCUUCGGAUGCAGAGGAGGCAGGAUUCGGUGGCGCGAUAGCGCCAACGUCCGCAACCUCCGAUGCAUCCCACCACAUGAUGAUGCCUGAAGAGCCUUGGUUUUUUG", "polymerase ribozyme fitness (log ratio)": 0.427}
{"variant": "GACCAAUCUGCCCUCAGAGCUCGAGAACAUCUUCGGAUGCAGAGGAGGCAGGAUUCGGUGGCGCGAUAGCGCCAACGUCCUCAACCUCCAAUGCAUCCCACCACAUGAUGAUGCCGGAAGAGCCUUGGUUUUUUG", "polymerase ribozyme fitness (log ratio)": -1.78}
{"variant": "GACCAAUCUGCCCUCAGAGCUCGAGAACAUCUUCGGAUGCAGAGGAGGCAGGAUUCGGUAGCGCGAUAGCGCCAACGUCCUCAACCUCCAAUGCAUCCCACCACAUGAUGAUGCCUGAAGUGCCUUGGUUUUUUG", "polymerase ribozyme fitness (log ratio)": 1.33}
{"variant": "GACCAAUCUGCCCUCAGAGCUCGAGAACAUCUUCGGAUGCAGAGGAGGCAGGAUUCGGUGGCGCGAUAGCGCCAACGUCCUCAACCUCCAAUGCAUCCAACCACAUGAUGAUGCCUCGAGAGCCUUGGUUUUUUG", "polymerase ribozyme fitness (log ratio)": -7.29}
{"variant": "GACCAAUCUGCCCUCAGAGCUCGAGAACAUCUUCGGAUGCAGAGGAGGCAGGAAUCGGUGGCGCGAUAGCGCCAACGUCAUCAACCUCCAAUGCAUCCCACCACAUGAUGAUGACUGAAGAGCGAUGGUUUUUUG", "polymerase ribozyme fitness (log ratio)": -6.7}
{"variant": "GACCAAUCUGCCCUCAGAGCUCGAGAACAUCUUCGGAUGCAGAGGAGGCAGGAUUCGGUGGCACGAUAGCGCCAACGUCCUCAACCUCCAAUGCAUCCCACCACAUGAUGAUGCCUGAAGAGCUUUGGCUUUUGG", "polymerase ribozyme fitness (log ratio)": 1.57}
{"variant": "GACCAAUCUGCCCUCAGAGCUCGAGAACAUCUUCGGAUGCAGAGGAGGCAGGAUUCGGUAGCGCGAUAGCGUCAACGUCCUCAACCUCCAAUGCAUCCCUCCACAUGAUGAUGCCUGAACAGGCUUGGUUUUUUG", "polymerase ribozyme fitness (log ratio)": -0.938}
{"variant": "GACCAAUCUGCCCUCAGAGCUCGAGAACAUCUUCGGAUGCAGAGGAGGCAGGAUUCGGUGGCGCGAUAGCGCCAACGUCCUCAAACUCCAAUGCAUCCCACCACAUGAUGAUGCCUAAAGAGCCGUGGUUUUUUG", "polymerase ribozyme fitness (log ratio)": -3.17}
{"variant": "GACCAAUCUGCCCUCAGAGCUCGAGAACAUCUUCGGAUGCAGAGGAGGCAGGAUUCGGUAGCGCGAUAGCGCCAACGUCCUCAACCUCCAAGGCAUCCCACCACAUGAUGAUGCCUGAAGAGCCUUGGUUUUUUG", "polymerase ribozyme fitness (log ratio)": -2.9}
{"variant": "GACCAAUCUGCCCUCAGAGCUCGAGAACAUCUUCGGAUGCAGAGGAGGCAGGAUUCGGUGGCGCGAUAGCGUCAACGUCCUCAACCUCCAAUGCAUCUCACCACAUGAUGAUGCCUGAAGAGUCUUGGUUUUUUG", "polymerase ribozyme fitness (log ratio)": -3.81}
{"variant": "GACCAAUCUGCCCUCAGAGCUCGAGAACAUCUUCGGAUGCAGAGGAGGCAGGAUUCGGUGGCGCGAUAGCGCCAACGUCCUCAACCUCCAAUGUAUCCCACCAUAUGAUGACGCCUGAAGAGCCUUGGUUUUUUG", "polymerase ribozyme fitness (log ratio)": 1.78}
{"variant": "GACCAAUCUGCCCUCAGAGCUCGAGAACAUCUUCGGAUGCAGAGGAGGCAGGAUUCGGUGGCGCGAUAGCCCCAACGUCCUCAACAUCCAAUGCAUCCCACCACAUGAUGAUGCCUGAAGAGCAUUGGUUUUUUG", "polymerase ribozyme fitness (log ratio)": -2.54}
{"variant": "GACCAAUCUGCCCUCAGAGCUCGAGAACAUCUUCGGAUGCAGAGGAGGCAGGAUUCGGUGGCGCGAUAGCGCCAACGCCCUCAACCUCCAAUGCAUCCCACCACAUGAUGAUUCCUGAAGAGCCUUGGUUUUUUG", "polymerase ribozyme fitness (log ratio)": -3.16}
{"variant": "GACCAAUCUGCCCUCAGAGCUCGAGAACAUCUUCGGAUGCAGAGGAGGCAGGAUUCGGUGGCGCGAUAGCGCCAACGUCCUCAACCUCCAAUGCAUCCCACCACAUGAUUAUGCCUGAAGAGCCUUGGUUUUUUG", "polymerase ribozyme fitness (log ratio)": -1.02}
{"variant": "GACCAAUCUGCCCUCAGAGCUCGAGAACAUCUUCGGAUGCAGAGGAGGCAGGAUUCGGUGGCGCGAUAGCGCCAACGUCCUCAACUUCCAAUGCAUCCCACCACAUGAUGAUGCCUGAAGAGCCUUGGUUUUUUG", "polymerase ribozyme fitness (log ratio)": -0.0407}
{"variant": "GACCAAUCUGCCCUCAGAGCUCGAGAACAUCUUCGGAUGCAGAGGAGGCAGGAUUCGGUGGCGCGAUAGCGCCAACGUCCUCAACAUCCAAUGCAUCCCACCACAUGAUGAUGCCUGAAGAGCAUUGGUUUUUUG", "polymerase ribozyme fitness (log ratio)": 1.52}
{"variant": "GACCAAUCUGCCCUCAGAGCUCGAGAACAUCUUCGGAUGCAGAGGAGGCAGGAUACGGUGGCGCGAUAGCCCCAACGUCCUCAACCUUUAAUGCAUCCCACCACAUGAUGAUGCCUGAAGAGCCUUGGUUUUUUG", "polymerase ribozyme fitness (log ratio)": -1.28}
{"variant": "GACCAAUCUGCCCUCAGAGCUCGAGAACAUCUUCGGAUGCAGAGGAGGCAGGAUUCGGUGGCACGAUAGCGCCAACGUCCUCAACCUCCAAUGCAUCCCACCACAUGAUGAUGCCUGAAGAGCCUUGGUUUUUUG", "polymerase ribozyme fitness (log ratio)": -0.638}
{"variant": "GACCAAUCUGCCCUCAGAGCUCGAGAACAUCUUCGGAUGCAGAGGAGGCAGGAUUCGGUGGCUCGAUAGCGCCAACGUCCUCAACCUCCAAUGCAUCCCACCACAUGAUGAUGCCUGAAGAGCCUUGGUUUUUUG", "polymerase ribozyme fitness (log ratio)": -1.77}
{"variant": "GACCAAUCUGCCCUCAGAGCUCGAGAACAUCUUCGGAUGCAGAGGAGGCAGGAUUCGGUGCCGCGAUAGCGCCAACGCCCUCAAUCUCCAAUACAUCCCACCACAUGAUGAUGCCUGAAGAGCCUUGGUUUUUUG", "polymerase ribozyme fitness (log ratio)": -0.976}
{"variant": "GACCAAUCUGCCCUCAGAGCUCGAGAACAUCUUCGGAUGCAGAGGAGGCAGGAUUCGGUCGCGCGAUAGCGCCAACGUCCUCAACCUCCAAUGCAUCCCACCCCAUGAUGAUGCCCGAACAGCCUUGGUUUUUUG", "polymerase ribozyme fitness (log ratio)": -7.17}
{"variant": "GACCAAUCUGCCCUCAGAGCUCGAGAACAUCUUCGGAUGCAGAGGAGGCAGGAUUCGGUGGCGCGAUAGCGCCAACGUCCUCAACCUCCAAUGCAUCCCACCACAUGAUGAUGCUUGAUGAGCCUUGGUUUUUUG", "polymerase ribozyme fitness (log ratio)": 0.429}
{"variant": "GACCAAUCUGCCCUCAGAGCUCGAGAACAUCUUCGGAUGCAGAGGAGGCAGGAUUCGGUGGCGCGAUACCGCCAACUUCCUCAACCUCCAAUGCAACCCACCACAUGAUGAUGCCUAAAGAGCCUUGGUUUUUUG", "polymerase ribozyme fitness (log ratio)": -5.87}
{"variant": "GACCAAUCUGCCCUCAGAGCUCGAGAACAUCUUCGGAUGCAGAGGAGGCAGGAUUCGGUGGCGCGAUAGCGCCAACGUCCUCAACCCCCAAUGCAUCCCACCACAUGAUGAUGCCUGAAGAGCCUUGGUUUUUUG", "polymerase ribozyme fitness (log ratio)": 0.506}
{"variant": "GACCAAUCUGCCCUCAGAGCUCGAGAACAUCUUCGGAUGCAGAGGAGGCAGGAUUCGGUGGCGCGAUAGCGCCAACGUCCUCAAACUCCAAUGCAUCCCACCACAUGAUGAUGCCUGAAGAGCCUUGGUUUUUUU", "polymerase ribozyme fitness (log ratio)": -2.53}
{"variant": "GACCAAUCUGCCCUCAGAGCUCGAGAACAUCUUCGGAUGCAGAGGAGGCAGGAUUCGGUGGCGCGAUAGCGCCAACGUCCUCAACCACCGAUGCAUGCCACCACAUGAUGAAGCCUGAAGAGCCUUGGUUUUUUG", "polymerase ribozyme fitness (log ratio)": -3.25}
{"variant": "GACCAAUCUGCCCUCAGAGCUCGAGAACAUCUUCGGAUGCAGAGGAGGCAGGAUUCGAUGGCGCGAUAGCGCCAACGUCCUCAACCUCGAAUGCAUCCCACUUCAUGAUGAUGCCUGAAGAGGCUUGGUUUUUUG", "polymerase ribozyme fitness (log ratio)": -5.91}
{"variant": "GACCAAUCUGCCCUCAGAGCUCGAGAACAUCUUCGGAUGCAGAGGAGGCAGGAUUCGGUGGCGCGAUAUCGCCAACGUCCUCAACCUCCAAUGCAUCCCACCACAUGAUGAUGCCUGAACAGCCUUGGUUUUUUG", "polymerase ribozyme fitness (log ratio)": 1.96}
{"variant": "GACCAAUCUGCCCUCAGAGCUCGAGAACAUCUUCGGAUGCAGAGGAGGCAGGAUUCGGUGGCGCGAUAGCGCCAACGUCCUCAACCUCCAAGGCUUCCCACCACAUGAUGAUGCCUGAAGAGCCUUGGUUUUUUG", "polymerase ribozyme fitness (log ratio)": -2.44}
{"variant": "GACCAAUCUGCCCUCAGAGCUCGAGAACAUCUUCGGAUGCAGAGGAGGCAGGAUUCGGUGGCGCGAUAGCGCCAACGUCCUCAACCUCCAAUGCAUCCCACCACAUGAUGAUGCCUGAAGAUACUUGGUUUUUUG", "polymerase ribozyme fitness (log ratio)": 0.198}
{"variant": "GACCAAUCUGCCCUCAGAGCUCGAGAACAUCUUCGGAUGCAGAGGAGGCAGGAUUCGGUGGCGCGAUAGCGCCAACGUCCUCAACCUACAAUGCAUCCCACCACAUGAUGAUGCCUGAAGAGCCUUGGUUUUUUG", "polymerase ribozyme fitness (log ratio)": -0.22}
{"variant": "GACCAAUCUGCCCUCAGAGCUCGAGAACAUCUUCGGAUGCAGAGGAGGCAGGAUUCGGUGGCGCGAUAGCGCCAACGCCCUCAACCUCCAAUGCAUCCCACCAAAUGAUGAUGCCUGAAGAGCCUUGGUUUUUUG", "polymerase ribozyme fitness (log ratio)": -1.25}
{"variant": "GACCAAUCUGCCCUCAGAGCUCGAGAACAUCUUCGGAUGCAGAGGAGGCAGGAUUCGGUGGCGCGAUAGCGCCAACGUCCUCAACCUUCAAUGCAUCCCAACACAUGAUGAUGCCUGAAGAGCCUUGGUUUUUUG", "polymerase ribozyme fitness (log ratio)": 0.356}
{"variant": "GACCAAUCUGCCCUCAGAGCUCGAGAACAUCUUCGGAUGCAGAGGAGGCAGGAUUCGGUGGCGCGAUAGCGCCAACGUCCUCAACCUUCAAUGCAUCCCAUCACAUGAUGAUGCCUGAAGAGUCUUGGUUUUUUG", "polymerase ribozyme fitness (log ratio)": 0.64}
{"variant": "GACCAAUCUGCCCUCAGAGCUCGAGAACAUCUUCGGAUGCAGAGGAGGCAGGAUUCGGUGGCGCGAUAGCGUCAACGUCCUCAACCUCCAAUGCAUCCCACCAUAUGAUGAUCCCUGAAGAGCCUUGGUUUUUUG", "polymerase ribozyme fitness (log ratio)": -2.1}
{"variant": "GACCAAUCUGCCCUCAGAGCUCGAGAACAUCUUCGGAUGCAGAGGAGGCAGGAUUCGGUGGCGCGAUAGCGCCAACGUACUCAACCUCCAAUGCAUCCCACCACAUGAUGAUGCCUGAAGAGCCUUGAUUUUUUG", "polymerase ribozyme fitness (log ratio)": -3.36}
{"variant": "GACCAAUCUGCCCUCAGAGCUCGAGAACAUCUUCGGAUGCAGAGGAGGCAGGAUUCGGUGGCGCGAUAGCGCCAAAGUCCUCAACCUACAAAGCAUCCCACCACAUGAUGAUGCCUGAAGAGCCUUGGUUUUUUG", "polymerase ribozyme fitness (log ratio)": -5.92}
{"variant": "GACCAAUCUGCCCUCAGAGCUCGAGAACAUCUUCGGAUGCAGAGGAGGCAGGAUUCGGUGGCGCGAUAGCGCAAACGGCCUCAACCUCCAAUGCAUCCCACCACAUGAUUAUGCCUGAAGAGCCUUGGUUUUUUG", "polymerase ribozyme fitness (log ratio)": -0.702}
{"variant": "GACCAAUCUGCCCUCAGAGCUCGAGAACAUCUUCGGAUGCAGAGGAGGCAGGAUUCGGUGGCGCGAUAUCGCCAACGGCCUAAACCUCCAAUGCAUCCCACCACAUGAUGAUGCCUGAAGAGCCUUGGUUUUUUG", "polymerase ribozyme fitness (log ratio)": -0.279}
{"variant": "GACCAAUCUGCCCUCAGAGCUCGAGAACAUCUUCGGAUGCAGAGGAGGCAGGAUUCGGUGACGCGAUAGCGCCAACGGACGCAAACUCCAAUGCAUCCCACCACAUGAUGAUGCCUGAAGAGCCUUGGUUUUUUG", "polymerase ribozyme fitness (log ratio)": -4.32}
{"variant": "GACCAAUCUGCCCUCAGAGCUCGAGAACAUCUUCGGAUGCAGAGGAGGCAGGAUUCGGUAGCGCGAUACCGCCAACGUCCUCAACCUCCAAUGCAUCCCACCACAUGAUGAUGCCUGAAGAGCCUUGGUUUUUUG", "polymerase ribozyme fitness (log ratio)": -3.47}
